According to patent publication US20240369485A1, “FLUORESCENT SENSOR FOR MONITORING CALCIUM DYNAMICS” (priority 2021, published 2024):
Read-outs that look alike come from different tables or passages of the source.

Legend:
[1] = pKa determination of the chromophore; format: physicochemical
Method: pKa determination. To measure the chromophore pKa of mApple, EGFP, and mCherry variants, the proteins were prepared in buffers (sodium acetate buffer for pH 3-5, MES buffer for pH 5-6, HEPES buffer for pH 6.5-8, TRIS buffer for pH 8.5-9) covering a pH range from 3 to 10. All samples were Incubated at 4° C. overnight, then the following day, the absorbance and fluorescence spectra were collected using a Shimadzu UV-1601 spectrophotometer and the Spectrofluorimeter.

HeLa cells [2] = format: cell-based
Method: (§1) Cell culture and transfection. C2C12, HEK293 and HeLa cells were cultured and maintained in Dulbecco's modified Eagle's medium (DMEM) supplemented with 10% fetal bovine serum (FBS) and high glucose (4.5 g/L) at 37° C. R-CatchER, G-CatchER2, G-CEPIA1er, R-CEPIA1er or R-CatchER with GFP-CaSR (wt and mutations) were transfected into cells using Lipofectamine 3000 (Life Technologies), following the manufacturer's instructions. Seed cells onto sterilized 22 mm×40 mm glass microscope slides in 6 cm dishes until about 70% confluency, the day of transfection. The next day, 2 μg of plasmid were mixed with transfection reagent in the reduced serum media Opti-MEM for 4-6 h at 37° C. The media was then replaced with 3 mL of fresh DMEM and incubated at 37° C. for 48 h.
HILO imaging of R-CatchER, G-CatchER2, R-CEPIA1er, and G-CEPIA1er. Samples were mounted in a perfusion chamber and imaged using a customized optical microscope based on a Nikon TiE inverted microscope equipped with a 100×TIRF objective (N.A. 1.49, Nikon) and a highly sensitive electron multiplying charge-coupled device (EMCCD) camera (Andor Ixon Ultra 888). A fiber-coupled 488 nm or 561 nm laser (LBX-488/LCX-561, Oxxius) was first collimated and then focused to the back focal plane of the TIRF objective using an achromatic optical lens of 200 mm focal length (AC254-200-A, Thorlabs). To achieve HILO imaging, the incident angle of the excitation laser was adjusted to be slightly smaller than the critical angles at the cell-coverslip interface through translational movement the optical axis of the incident light beam by a motorized stage (SGSP-20-20, Sigma Koki). An efficient excitation volume of few micrometers was obtained under HILO illumination. A quad-band filter set (TRF89901v2, Chroma) was used for filtering out the fluorescence background. Fluorescence images of samples were recorded at 1 Hz as the concentration of ER Ca^2+ was perturbed by perfusion of 3 μM Thapsigargin, 0.5 mM 4-cmc, 1 mM 4-cmc, 100 μM ATP, or 100 μM histamine.

[3] = Calcium (Ca^2+) binding assay: fluorescence/absorbance titration of purified protein
Method: Calcium (Ca^2+) binding assay. 10 μM protein samples of mApple, EGFP, and mCherry variants were titrated with different concentrations of Ca^2+. Data were fitted with a 1:1 binding equation. Fluorescence intensities were collected using a Spectrofluorimeter (Photon Technology International, Inc.) and the absorbance values of Ca^2+-free and Ca^2+-loaded forms were determined using a Shimadzu UV-1601 spectrophotome.
Ca^2+ binding assay. Fluorescence measurements of mApple variants with increasing Ca^2+ concentrations were done in order to obtain the affinity of the sensor for Ca^2+ in vitro. Samples of 10 μM mApple variants with 5 μM EGTA were prepared in triplicate in 1 mL volumes in 10 mM Tris, pH 7.4. The samples were placed in quartz fluorescence cuvettes, and metal ion was titrated into each sample, in a stepwise manner, using 0.1 M and 1 M metal stock solutions. The fluorescence response of the indicator to increasing Ca^2+ concentrations was monitored using a fluorescence spectrophotometer (Photon Technology International, Canada) with the Felix32 fluorescence analysis software. The absorbance spectra before and after titration were obtained using a Shimadzu UV-1601 spectrophotometer.

ER Ca^2+ = experiment: Quantitative basal/resting ER Ca^2+ measurement using R-CatchER; format: cell-based
[4] = In vitro kinetics by stopped flow spectrofluorometer; format: binding
Method: In vitro kinetics by stopped flow spectrofluorometer. The kinetics were determined by a Hi-Tech SF-61 stopped-flow spectrofluorometer equipped with the mercury-Xe lamp (10 mm path length, dead time of 2.2 ms) at 20° C. For R-CatchER and its variant or R-CEPIA1er, excitation was at 569 nm and a long-pass 590 nm filter was used. For G-CEPIA1er, a 530 nm long-pass filter was set with excitation at 498 nm, while for MCD1, excitation at 587 nm and a long-pass 600 nm filter were applied. For association kinetics, R-CatchER, R-CatchER variant, MCD1, R-CEPIA1er, and G-CEPIA1er were mixed with the same buffer containing an increasing concentration of Ca^2+. For disassociation kinetics, R-CatchER, R-CatchER variant, MCD1, R-CEPIA1er, and G-CEPIA1er in buffers with concentration of Ca^2+ at Kd, were mixed with 5 mM EGTA or buffer. The raw data were fitted using either single exponential for R-CatchER, R-CatchER variant, and MCD1, or double exponential equations for R-CEPIA1er and G-CEPIA1er.

HeLa cells [5] = experiment: In situ Ca^2+ binding affinity in HeLa cells with stepwise Ca^2+ concentrations; format: cell-based
Method: as §1

Ca^2+ induced fluorescence changes upon addition of other ions (metal selectivity) ([3]; 1 mM Mg^2+, 150 mM KCl, 150 mM NaCl): insensitive
Fmax/Fmin ([3]; EGFP and mApple variants): 4.22
Aholo/Aapo ([3]; absorbance at 569): 4.33 (569)
fluorescence dynamic range ΔF/F ([3]; in vitro, Ca^2+ binding): 4.22±0.04
Kd ([3]; in vitro, purified protein, read-out: Kd for Ca^2+ binding): 350 ± 30 µM
Hill coefficient ([3]; purified indicator, Ca^2+ binding): 0.98
Dynamic Range ([3]; purified indicator, Ca^2+ induced fluorescence): 4.2
Kd ([3]; purified indicator, Ca^2+, read-out: Kd): 361 µM
B1: R-CatchER: red genetically encoded Ca^2+ indicator, mApple A145E/K198D/R216D, SEQ ID NO: 12 (protein)
chain: EENNMAIIKEFMRFKVHMEGSVNGHEFEIEGEGEGRPYEAFQTAKLKVTKGGPLPFAWDILSPQFMYGSKVYIKHPADIPDYFKLSFPEGFRWERVMNFEDGGIIHVNQDSSLQDGVFIYKVKLRGTNFPSDGPVMQKKTMGWEESEERMYPEDGALKSEIKKRLKLKDGGHYAAEVKTTYKAKKPVQLPGAYIVDIDLDIVSHNEDYTIVEQYEDAEGRHSTGGMDELYK
apparent pKa ([1]; 0 mM Ca^2+): 8.58±0.11
apparent pKa ([1]; 10 mM Ca^2+): 7.11±0.10
pka ([1]; Apo): 8.58 ± 0.11
pKa (holo) ([1]; Holo): 7.1
pka ([1]; Holo): 7.11 ± 0.10
pKa (apo) ([1]; apo): 8.6
fluorescence decrease ΔF/F (HeLa cells [2]; 3 μM Thapsigargin (Tg), 0 mM Ca^2+): 0.69±0.07
half decay time of the first peak of ER Ca^2+ oscillations (HeLa cells [2]; 100 μM histamine): 1.8 ± 0.1 s
half rise time of the first peak of ER Ca^2+ oscillations (HeLa cells [2]; 100 μM histamine): 7.3 ± 0.1 s
Basal [Ca^2+]ER (ER Ca^2+; 6-23 cells, 0.5 mM Ca^2+): 735.0 ± 66.7 µM
Basal [Ca^2+]ER (ER Ca^2+; CaSR L173P, 1.8 mM Ca^2+): 893.6 ± 67.6 µM
Basal [Ca^2+]ER (ER Ca^2+; CaSR P221L, 1.8 mM Ca^2+): 477.7 ± 49.4 µM
Basal [Ca^2+]ER (ER Ca^2+; CaSR P221Q, 1.8 mM Ca^2+): 674.6 ± 50.2 µM
Basal [Ca^2+]ER (ER Ca^2+; CaSR S820F, 1.8 mM Ca^2+): 406.1 ± 41.4 µM
Basal [Ca^2+]ER (ER Ca^2+; GFP-CaSR, 0.5 mM Ca^2+): 487.1 ± 48.2 µM
resting ER Ca^2+ concentration (ER Ca^2+; HEK293 cells): 0.68 ± 0.22 mM
resting ER Ca^2+ concentration (ER Ca^2+; HeLa cells): 0.59 ± 0.16 mM
Basal [Ca^2+]ER (ER Ca^2+; TT cells, 0.5 mM Ca^2+): 539.0 ± 65.9 µM
kon ([4]; Ca^2+ association): >7e+06 M⁻¹ s⁻¹
koff ([4]; Ca^2+ dissociation): >2000 s⁻¹
Ca^2+ association rate kon ([4]; stopped-flow, dead time 2.2 ms, 20° C.): ≥ 7e+06 M⁻¹ s⁻¹
Kd (HeLa cells [5]): 310 ± 50 µM
